The values that follow come from patent US20170218369, “AN ANTAGONISTIC PD-1 APTAMER AND ITS APPLICATIONS IN CANCER THERAPY RELATED APPLICATIONS” (Academia Sinica, published 2017).

Series [1] deals with T1, PD-1 (programmed cell death protein 1) (Mus musculus, UniProt Q02242 Q02242:25-169). As to the kind of experiment: ELONA; ++ class. The note with it: tags: His tag, immobilized on Ni-NTA plate; label: 5'-biotin. The procedure: (§1) Briefly, 200 ng of histidine-tag labeled PD-1 receptors (His tag-PD1 protein) were coated on nickel-nitrilotriacetic acid (Ni-NTA) coated plates and treated with aptamers conjugated at their 5′ end to biotin (Biotin-PD-1 aptamer). Binding of the aptamers to PD-1 was detected using streptavidin-HRP and ECL substrate. The aptamers tested were:
(§2) The above aptamers were tested for binding to human, mouse, rat, rhesus monkey and/or canine PD-1 using the in vitro PD-1 binding assay depicted in FIG. 9.

For series [2], the target named is T1, PD-1 (programmed cell death protein 1). Put plainly: ELONA; +++ class. The settings on record: tags: His tag, immobilized on Ni-NTA plate; label: 5'-biotin. The method, then: as §1, §2
Series [3] addresses PD-1 (programmed cell death protein 1) (Homo sapiens, UniProt Q15116 Q15116:25-170). As to the kind of experiment: competition; inhibition of PD-1/PD-L1 interaction. The settings on record: tags: His tag, immobilized on Ni-NTA plate. The method, then: Each of the above aptamer nucleotide sequences were tested for PD-1 antagonistic activity using an in vitro competition assay. Briefly, 200 ng of histidine-tag labeled PD-1 receptors (His tag-PD1 protein) were coated on nickel-nitrilotriacetic acid (Ni-NTA) coated plates and treated with Fc-labeled PDL-1 protein/aptamer mixture. Protein G-HRP and ECL substrate was used to determine the binding signal. The PD-1 antagonistic antibody J116 was used as a positive control and the negative control was performed in the absence of aptamer or antibody. A schematic representation of the competition assay is shown in FIG. 8, panels A and B. Each of the aptamer sequences (Cores 1-6 and Core 1(optimized)) were tested in the in vitro competition assay at a concentration of 200 nM. In the competition assay, each aptamer nucleotide sequence inhibited the interaction between PD-1 and PDL-1 as shown in FIG. 6.

Series [4] has as its target PD-1 (programmed cell death protein 1) extracellular domain (UniProt Q15116 Q15116:25-170). As to the kind of experiment: filter; total binding assay.

A word on the Kd: it is a measure of binding affinity in units of concentration. Usually IC50 stands for the concentration needed to halve the response being measured. A lower IC50 goes with higher potency.

A value given as a limit tells only on which side of the number the result lay.

T1 sequence (Q02242 25-169, one chain of several): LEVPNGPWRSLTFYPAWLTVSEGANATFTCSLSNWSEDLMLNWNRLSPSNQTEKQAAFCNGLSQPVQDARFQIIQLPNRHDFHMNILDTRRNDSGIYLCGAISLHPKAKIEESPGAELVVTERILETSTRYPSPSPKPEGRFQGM
PD-1 (programmed cell death protein 1) extracellular domain, sequence (Q15116 25-170, one chain of several): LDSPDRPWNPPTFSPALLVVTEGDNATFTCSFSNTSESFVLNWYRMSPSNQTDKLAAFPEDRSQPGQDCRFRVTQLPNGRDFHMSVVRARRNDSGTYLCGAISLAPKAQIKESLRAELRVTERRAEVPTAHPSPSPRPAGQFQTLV
PD-1 (programmed cell death protein 1) (Homo sapiens, UniProt Q15116 Q15116:25-170), sequence (Q15116 25-170, one chain of several): as above

B1: PD100 (5'-biotin) (ssDNA)
DNA: TCCCTACGGCGCTAACCCTCCCCTAGTATATATTGTCCTCGTCTATGCCACCGTGCTACAAC
Consider B1, for which, in series [1], the Kd came to 44.7 nM.

B2: Core 2 (5'-biotin) (ssDNA)
DNA: TATATTGTCC
B2: in series [2], the Kd was less than 20 nM.

B3: Core 1 (ssDNA)
DNA: CCATCTCCC
With B3, the IC50 in series [3] is 31.2 nM.

B4: PD7 (ssDNA)
DNA: TCCCTACGGCGCTAACCTTCCATCTCCCATGCTTAGTCAAACATACGCCACCGTGCTACAAC
As for B4, binding in series [4] was characterised by a dissociation constant (Kd) of 9.7 nM.

B5: PD7 (5'-biotin) (ssDNA)
DNA: TCCCTACGGCGCTAACCTTCCATCTCCCATGCTTAGTCAAACATACGCCACCGTGCTACAAC
Molecule B5 gave a Kd in series [2] of less than 20 nM.

B6: Core 1 (5'-biotin) (ssDNA)
DNA: CCATCTCCC
B6 showed a Kd in series [1] of 44.7 nM.

B7: PD16 (ssDNA)
DNA: TCCCTACGGCGCTAACTGATCACAAGAATAACTATCCCATCTCCCTGCCACCGTGCTACAAC
For the molecule B7, the affinity in series [4], expressed as Kd, was 2.1 nM.
